Experiment [1] concerns SKOV3 ovarian carcinoma cells. Description: SKOV3 tumor xenograft, tumor growth. To be noted: twice weekly i.p., AB0023 15 mg/kg, taxol 5 mg/kg, monitored 40 days, vs vehicle controls. It counts as in vivo, mice. As to the method:
(§1) SKOV3 ovarian carcinoma cells were obtained from ATCC, Manassas, Va. 5×10^6 cells, suspended in 50% (v/v) Matrigel, were implanted subcutaneously in female athymic nude mice. After tumors attained a volume of 100 mm^3, the mice received twice weekly intra-peritoneal injections of vehicle, anti-LOXL2 antibody AB0023 (15 mg/kg), taxol (5 mg/kg) or a combination of taxol and AB0023. The experiment was terminated when tumors from control (vehicle-treated) animals attained an average volume of 1,000 mm^3, at which point the animals were sacrificed, tumors were removed and snap-frozen, and 5 μm thick frozen sections were prepared from the frozen tumors.
Female athymic nude mice were implanted with SKOV3 ovarian carcinoma cells which, when transplanted, form highly vascularized subcutaneous tumors. Expression of LOXL2 in these tumors was confirmed by immunohistochemistry; it was noted that most of the LOXL2 immunostaining was associated with vascular structures. When the average tumor volume of the population reached 100 mm^3, the mice were treated twice weekly with intra-peritoneal injections of the anti-LOXL2 antibody AB0023 (15 mg/kg), taxol (5 mg/kg) or a combination of AB0023 and taxol at the concentrations given above. Control mice received injection of vehicle (PBST). Tumor growth was monitored for 40 days.

Experiment [2] deals with SKOV3-derived tumors. Kind of experiment: SKOV3 xenograft, tumor hypoxia by carbonic anhydrase IX (CA9) levels. It counts as in vivo, mice. The note with it: vs vehicle. On the procedure:
as §1
Sections were fixed with 4% paraformaldehyde and blocked using Peroxidazed 1 and Background Sniper (Biocare Medical, Concord, Calif.) before incubation with primary antibody. Anti-CA9 antibody (Abcam) was applied and Mach2 HRP-polymer (Biocare Medical) was used as secondary antibody. All sections were dehydrated through a series of ethanol dilutions and xylene, mounted using a resinous medium, and visualized using DAB chromogen.
Mice with SKOV3-derived tumors, as described in Example 4, were treated with AB0023 and/or taxol; and the effects on levels of carbonic anhydrase IX (CA9), a marker of hypoxia, were determined. […] Thus, inhibition of LOXL2 reduces vessel density and reduces hypoxia in tumors.

The test system of experiment [3] is SKOV3-derived tumors. Description: SKOV3 xenograft, pericytes by NG2 and CD31 staining. It counts as in vivo, mice. The note with it: vs vehicle. On the procedure: as §1
(§2) For assessment of perfusion, the animals were injected intravenously with Hoechst 33342 (40 mg/kg) one minute prior to sacrifice and tumor removal was performed as described by Franco et al. (2006) Cancer Res. 66:3639-3648 and Rijken et al. (2000) Int. […] Bound anti-CD31 was detected with a goat anti-rat CY3-labeled antibody (Jackson Laboratories, Bar Harbor, Me.) and bound NG2 antibodies were detected with a Cy2-labeled anti-rabbit antibody (Jackson Laboratories, Bar Harbor, Me.). The stained sections were visualized using a confocal microscope or a Leica CTR 6000 microscope, and at least five microscopic fields were analyzed in each section. For analysis of perfusion, the coincidence of CD31-staining and Hoechst dye fluorescence was assessed. […]

Experiment [4] concerns SKOV3-derived tumors. Description: SKOV3 xenograft, tumor perfusion by Hoechst 33342 / CD31 coincidence. To be noted: Hoechst 33342 40 mg/kg i.v. one minute before sacrifice; vs control mice; p<0.05. It counts as in vivo. As to the method: as §1, §2
The subject of experiment [5] is SKOV3-derived tumors. Description: SKOV3 xenograft, tumor vessel number by CD31 immunoreactivity. It counts as in vivo, mice. To be noted: vs vehicle-treated animals; p<0.01. On the procedure:
as §1, §2

In experiment [6] the test system is bFGF-induced angiogenesis. Description: Matrigel plug assay, vessel counting and immunohistochemistry. It counts as in vivo, mice. On the procedure: To determine if inhibition of LOXL2 could modulate angiogenesis in vivo, we examined the effects of the anti-LOXL2 antibody AB0023 on bFGF-induced angiogenesis, using a Matrigel plug assay. Kessler et al. (2004) Cancer Res. 64:1008-1015; Kibbey et al. (1992) J. Natl. Cancer Inst. 84:1633-1638.
For these experiments, either AB0023, at a concentration of 30 mg/kg, or vehicle (PBS+0.01% Tween-20) were injected intraperitoneally (30 mg/kg or equivalent volume) twice weekly into athymic female Ncr:Nu/Nu mice. After one week the mice were injected subcutaneously with 250 or 500 μl Matrigel (BD Biosciences, San Jose, Calif.) supplemented with 100 ng/ml human bFGF (Peprotech, Rocky Hill, N.J.) and 40 or 60 U heparin (Sigma, St. Louis, Mo.). Matrigel plugs were harvested after 10 days, excised together with attached skin, fixed in 10% neutral buffered formalin, and embedded in paraffin. Immunohistochemical analysis was performed on 5 μm serial sections with anti-CD31, anti-CD34, and anti-NG2 antibodies. 2 step sections separated by […] were analyzed per plug. Three representative 10× microscopic fields were selected per section per step, for a total of 6 fields per plug.
Immunohistochemical analysis was performed with anti-CD34 antibody on one representative section from each plug. Three representative 10× fields were selected per section for quantitation. For all IHC analysis of plugs, the mean area of signal was determined for each treatment group using Metamorph software (Molecular Devices).

Experiment [7] has as its system bFGF-induced angiogenesis. Kind of experiment: Matrigel plug assay, flow cytometric analysis. The note with it: plugs harvested 7 days after implantation, vs vehicle. It counts as in vivo, mice. On the procedure: The anti-angiogenic effects of systemic AB0023 administration in the Matrigel plug assay system were also assessed using flow cytometry to assay for cells expressing CD31, and for CD45-negative cells that express the vascular endothelial growth factor receptor VEGFR2 (an angiogenic marker). Analysis was conducted according to the method described by Adini et al. (2009) J. Immunol. Meth. 342:78-81.

Experiment [8] has as its system human umbilical vein endothelial cells (HUVEC). Description: bFGF-induced HUVEC migration assay (transwell). It counts as cell-based. The note with it: antibody 10 μg/ml, compared to control antibody AC-1; 5 hours. On the procedure: To determine whether LOXL2 activity contributes to bFGF-induced migration of human umbilical vein endothelial cells (HUVEC), experiments were conducted in which expression of LOXL2 was inhibited using a LOXL2-targeted shRNA, and LOXL2 activity was inhibited using an anti-LOXL2 antibody.
(§3) HUVEC were isolated from umbilical veins and cultured as described. Gospodarowicz et al. (1983) J. Cell Biol. 97:1677-1685; Kigel et al. (2008) PLoS One 3:e3278. Recombinant human bFGF was produced and purified according to Tessler et al. (1990) J. Cell. Physiol. 145:310-317. For inhibition of LOXL2 expression by shRNA, lentiviruses directing expression of a LOXL2-targeted shRNA and a control shRNA were generated and used to infect HUVEC as described. Brekhman et al. (2009) BMC Cancer 9:415. The anti-LOXL2 monoclonal antibody (AB0023) has been described. See, e.g., Rodriguez et al. (2010) J. Biol. Chem. 285:20964-20974 and United States Patent Application Publication No. 2009/0053224 (Feb. 26, 2009).
For migration assays, HUVEC were seeded in transwell culture dishes (8 μm pores, 3×10^4 cells/well) coated with fibronectin (10 μg/ml, Biological Industries) in 200 μl of M199 medium containing 20% fetal calf serum. […] After 5 hours, cells that had migrated were fixed for 20 minutes with 4% paraformaldehyde, washed three times with PBS, stained with 0.05% crystal violet for 10 minutes, photographed, and counted.

Experiment [9] has the same test system. Kind of experiment: Tube formation on Matrigel by HUVEC. It counts as cell-based. To be noted: antibody 1 ug/ml, compared to control antibody AC-1; bFGF 5 ng/ml, 24 hours.
Excerpt: as §3
Tube formation on Matrigel was carried out as described. Varshaysky et al. (2008) Cancer Res. 68:6922-2931. For shRNA inhibition HUVEC, infected with either shLOXL2-encoding or control lentivirus, were seeded in Matrigel-coated 48 well tissue culture plates (1.6×10^4 cells/well) and incubated with growth medium supplemented with bFGF (5 ng/ml) for 24 hours. […] Phase-contrast images were photographed at 63× magnification and bifurcations-per-field of tube structures in microscopic fields were quantified by manual counting.

The mark [10] stands for this setting: independent experiment, vs vehicle.

For the molecule `CC(=O)O[C@H]1C(=O)[C@@]2(C)[C@H]([C@H](OC(=O)c3ccccc3)[C@]3(O)C[C@H](OC(=O)[C@H](O)[C@@H](NC(=O)c4ccccc4)c4ccccc4)C(C)=C1C3(C)C)[C@]1(OC(C)=O)CO[C@@H]1C[C@@H]2O` [taxol, paclitaxel, reference compound], the “tumor growth (increase in tumor volume)” value in experiment [1] was “small, statistically insignificant inhibition”. The “effect on CA9 levels in tumors” value with SKOV3-derived tumors [2] (taxol 5 mg/kg twice weekly i.p.) is on record as “did not have a statistically significant effect”.

B1: AB0023: mouse monoclonal antibody directed against LOXL2; heavy and light chain variable regions SEQ ID NO:1 and 2 (antibody, listed as Mus musculus, V domains shown)
VH: MEWSRVFIFLLSVTAGVHSQVQLQQSGAELVRPGTSVKVSCKASGYAFTYYLIEWVKQRPGQGLEWIGVINPGSGGTNYNEKFKGKATLTADKSSSTAYMQLSSLTSDDSAVYFCARNWMNFDYWGQGTTLTVSS
VL: MRCLAEFLGLLVLWIPGAIGDIVMTQAAPSVSVTPGESVSISCRSSKSLLHSNGNTYLYWFLQRPGQSPQFLIYRMSNLASGVPDRFSGSGSGTAFTLRISRVEAEDVGVYYCMQHLEYPYTFGGGTKLEIK
As to B1, the “tumor growth (increase in tumor volume)” value in experiment [1] is recorded as “did not inhibit tumor growth”. For the same molecule, in the experiment with SKOV3-derived tumors [3], the “total number of NG2-expressing cells in tumors” value was “not significantly changed”. The “concentration of vessel-associated pericytes in tumors (correspondence of CD31 and NG2 staining)” value in the experiment on SKOV3-derived tumors [3] (p<0.01) was “significantly increase”. In addition, in the experiment on SKOV3-derived tumors [2] (AB0023 15 mg/kg twice weekly i.p., p<0.05), the “reduction in CA9 levels in tumors” value is on record as 66%. For the same molecule, the “tumor perfusion (Hoechst staining associated with CD31-positive vessels)” value in the experiment with SKOV3-derived tumors [4] is on record as “better perfusion”. Besides, the “CD31 immunoreactivity in tumors (concentration of tumor-associated blood vessels)” value in the experiment on SKOV3-derived tumors [5] was “statistically significant decrease”. In addition, the “number of blood vessels in Matrigel plugs (whole plug vessel counting)” value in experiment [6] (30 mg/kg i.p. twice weekly, athymic Ncr:Nu/Nu mice, plugs after 10 days, vs vehicle) is recorded as “significant reduction”. Besides, the “CD31 levels in Matrigel plug sections” value in experiment [6] (30 mg/kg i.p. twice weekly, plugs after 10 days, vs vehicle) is recorded as “reduced”. The “CD34 immunoreactivity in implanted plugs” value in [6] (further study, vs vehicle and control antibody AC-1) is “loss of CD34 immunoreactivity”. In experiment [6] (setting [10]), the “staining for CD34 in Matrigel plugs” value is “significant reduction” and the “staining for pericyte marker NG2 in Matrigel plugs” value is given as “significant reduction”. For the same molecule, in experiment [7], the “number of CD31+ cells in plugs (flow cytometry)” value was “significantly reduced” and the “number of VEGFR-2+/CD45- endothelial cells in plugs (flow cytometry)” value is listed as “significantly reduced”. Moreover, the “bFGF-induced cell migration of HUVEC” value in experiment [8] was “inhibited”. Also, the “tube formation on Matrigel” value in experiment [9] was “inhibited”.

(Values after patent US20140186340A1, “Methods and Compositions for Normalization of Tumor Vasculature by Inhibition of LOXL2” (GILEAD BIOLOGICS, INC., priority 2011, published 2014).)
